Assays:
[1] = biological target: T1, CD11b (mouse), on the CD11b+ mutuDC dendritic cell line and on cells of lymphoid organs (mouse, UniProt P05555 17-1153); assay: FACS, CD11b+ mutuDC dendritic cell line stained in vitro with Alexa647-labeled DC13 monomer or dimer; reference DC13 monomer
T1 construct: whole, on cells; Its partner chain on the cell surface is not mentioned
Text: Cells were harvested and analyzed with FACS.
Four sortase substrates were designed and synthesized for production of dimers or PEGylated VHHs (FIG. 1). The substrates either contain two bioorthogonal handles or a handle and a flourophore. The Alexa647-labeled substrate was designed such that the reaction products could be used in FACS experiments to estimate relative in vitro binding affinities. […] The dimers were produced as exemplified in FIG. 2. For DC8 (anti Class II), splenocytes were stained with different concentrations of monomers and dimers and analyzed by FACS. For DC13 (anti CD11b), the CD11b⁺ mutuDC dendritic cell line was used. For Class II MHC and CD11b, VHH dimers bind approximately 3.3 and 2.3-fold better than their corresponding monomers respectively (FIG. 3). The in vivo binding characteristics of the VHH dimers versus monomers were evaluated. Due to the more abundant expression of Class II MHC molecules on splenocytes compared to that of CD11b, the in vivo binding affinity for anti-Class II dimers was explored. Mice were injected i.v. with equal amounts of monomers and dimers (0.25 nmol) of DC8. 2 h p.i., mice were euthanized and lymphoid organs were excised for examination. Monomers and dimers yielded different staining patterns (FIG. 3B), with the dimer showing interspersed yet more pronounced staining than the monomer, corroborating the FACS results. […]

[2] = biological target: Class II MHC (mouse), on splenocytes and lymphoid organ cells (mouse); assay: FACS, splenocytes stained in vitro with different concentrations of Alexa647-labeled DC8 monomer or dimer; reference DC8 monomer
[3] = biological target: Class II MHC (mouse), on splenocytes and lymphoid organ cells (mouse); assay: FACS of spleen cells harvested 3 h after i.v. injection of Alexa647-labeled VHH into B6 mice; reference non-PEGylated DC8-Alexa647; no staining in the spleen of an MHC II-/- mouse
[4] = biological target: Class II MHC (mouse), on splenocytes and lymphoid organ cells (mouse); assay: FACS of spleen cells harvested 3 h after i.v. injection of Alexa647-labeled VHH into B6 mice; reference non-PEGylated DC8-Alexa647

Class II MHC (mouse), on splenocytes and lymphoid organ cells (mouse), sequence (P14434 24-256, chain 1 of 2): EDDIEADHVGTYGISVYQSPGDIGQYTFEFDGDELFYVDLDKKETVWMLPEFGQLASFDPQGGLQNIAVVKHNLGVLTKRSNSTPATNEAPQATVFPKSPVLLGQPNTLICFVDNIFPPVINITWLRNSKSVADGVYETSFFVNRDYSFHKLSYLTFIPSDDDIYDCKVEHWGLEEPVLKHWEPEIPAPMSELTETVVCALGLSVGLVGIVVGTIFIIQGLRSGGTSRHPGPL
Class II MHC (mouse), on splenocytes and lymphoid organ cells (mouse), sequence (P14483 28-265, chain 2 of 2, further chain): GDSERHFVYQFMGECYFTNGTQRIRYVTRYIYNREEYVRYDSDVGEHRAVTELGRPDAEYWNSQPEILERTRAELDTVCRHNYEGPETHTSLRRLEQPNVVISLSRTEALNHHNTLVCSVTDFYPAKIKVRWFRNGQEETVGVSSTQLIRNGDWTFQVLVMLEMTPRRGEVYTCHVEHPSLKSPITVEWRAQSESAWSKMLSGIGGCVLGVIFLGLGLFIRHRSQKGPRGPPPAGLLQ
T1 sequence (P05555 17-1153): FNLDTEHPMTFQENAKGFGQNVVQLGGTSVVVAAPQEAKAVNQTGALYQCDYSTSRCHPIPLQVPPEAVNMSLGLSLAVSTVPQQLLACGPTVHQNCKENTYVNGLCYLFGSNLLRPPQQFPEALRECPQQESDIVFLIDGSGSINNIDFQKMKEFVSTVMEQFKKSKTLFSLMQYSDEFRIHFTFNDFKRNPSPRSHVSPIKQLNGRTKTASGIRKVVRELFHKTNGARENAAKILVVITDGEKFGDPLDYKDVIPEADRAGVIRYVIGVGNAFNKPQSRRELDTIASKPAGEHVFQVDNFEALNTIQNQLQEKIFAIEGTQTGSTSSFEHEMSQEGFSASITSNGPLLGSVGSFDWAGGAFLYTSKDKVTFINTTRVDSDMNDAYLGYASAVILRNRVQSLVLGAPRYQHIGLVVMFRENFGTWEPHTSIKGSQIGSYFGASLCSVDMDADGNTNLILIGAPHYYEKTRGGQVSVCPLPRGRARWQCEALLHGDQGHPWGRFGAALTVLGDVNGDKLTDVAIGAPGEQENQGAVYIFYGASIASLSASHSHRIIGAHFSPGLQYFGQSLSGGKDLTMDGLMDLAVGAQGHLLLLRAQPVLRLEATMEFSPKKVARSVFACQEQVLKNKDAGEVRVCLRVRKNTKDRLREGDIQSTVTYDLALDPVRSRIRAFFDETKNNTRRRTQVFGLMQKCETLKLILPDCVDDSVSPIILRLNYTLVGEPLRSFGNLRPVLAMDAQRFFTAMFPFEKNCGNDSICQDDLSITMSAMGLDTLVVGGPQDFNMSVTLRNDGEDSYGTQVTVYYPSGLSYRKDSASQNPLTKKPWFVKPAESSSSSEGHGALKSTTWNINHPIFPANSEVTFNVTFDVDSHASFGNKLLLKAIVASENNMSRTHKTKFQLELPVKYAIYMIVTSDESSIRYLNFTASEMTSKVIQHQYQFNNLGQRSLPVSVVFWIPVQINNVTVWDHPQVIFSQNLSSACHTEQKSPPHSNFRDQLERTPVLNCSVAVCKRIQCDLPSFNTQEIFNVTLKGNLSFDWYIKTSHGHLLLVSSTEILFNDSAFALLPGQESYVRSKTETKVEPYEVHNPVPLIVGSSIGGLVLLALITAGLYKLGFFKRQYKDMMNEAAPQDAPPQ

B1: DC13-dimer (bivalent DC13, two DC13 VHHs joined through their C-termini) (VHH)
VHH: QVQLQESGGGLVQTGGSLRLSCAASGVDFNWYSMGWFRQAPGKEREYVASIDQGGELDYAISVKGRFTISRDNAKNMVYLQMNSLKPEDTAVYYCAADFSGRGASNPDKYKYWGQGTQVTVSS
modifications: Each chain is sortagged at LPET. One carries (Gly)3-Cys(maleimide-DBCO), the other (Gly)3-PEG12-Cys(X)-PEG5-Lys(azide), where X is Alexa647, Texas Red or TCO/18F-tetrazine. The two chains are joined C-terminus to C-terminus by DBCO-azide click chemistry.
notes: This is a chemical C-to-C dimer; also called anti CD11b dimer; 18F-DC13 dimer
[1]
  fold better binding than the corresponding monomer: ~2.3 fold

B2: DC8-dimer (bivalent DC8, two DC8 VHHs joined through their C-termini) (VHH)
VHH: QVQLQESGGGLVQPGGSLRLSCTASGFTFSTYYMSWVRKAPGKGPEWVSVMNSSGGDTRYADFVKGRFTISRDNAKNTLYLQMNSLKPEDTALYYCAQGRSDIYPTFTRGQGTQVTVSS
modifications: Each chain is sortagged at LPET. One carries (Gly)3-Cys(maleimide-DBCO), the other (Gly)3-PEG12-Cys(X)-PEG5-Lys(azide), where X is Alexa647, Texas Red or TCO/18F-tetrazine. The two chains are joined C-terminus to C-terminus by DBCO-azide click chemistry.
[2]
  fold better binding than the corresponding monomer: 3.3 fold

B3: DC8-Alexa647-PEG-20 kDa (PEGylated DC8, 20 kDa PEG) (VHH)
VHH: B2 VHH
modifications: Sortagged at LPET with (Gly)3-PEG12-Cys(X)-PEG5-Lys(azide), where X is Alexa647, Texas Red or TCO/18F-tetrazine. DBCO-PEG 20 kDa is clicked onto the azide.
[3]
  increase in staining versus non-PEGylated DC8: 220%

B4: DC8-Alexa647-PEG-5 kDa (PEGylated DC8, 5 kDa PEG) (VHH)
VHH: B2 VHH
modifications: Sortagged at LPET with (Gly)3-PEG12-Cys(X)-PEG5-Lys(azide), where X is Alexa647, Texas Red or TCO/18F-tetrazine. DBCO-PEG 5 kDa is clicked onto the azide.
[4]
  increase in staining versus non-PEGylated DC8: 30%

B5: DC8-Alexa647-PEG-10 kDa (PEGylated DC8, 10 kDa PEG) (VHH)
VHH: B2 VHH
modifications: Sortagged at LPET with (Gly)3-PEG12-Cys(X)-PEG5-Lys(azide), where X is Alexa647, Texas Red or TCO/18F-tetrazine. DBCO-PEG 10 kDa is clicked onto the azide.
[4]
  increase in staining versus non-PEGylated DC8: 100%
